# B1: Fuc-TIX: human Fuc-TIX, 359 amino acids (SEQ ID NO:2), α1,3-fucosyltransferase expressed from pAMo-FT9 in Namalwa cells (protein)
# chain: MTSTSKGILRPFLIVCIILGCFMACLLIYIKPTNSWIFSPMESASSVLKMKNFFSTKTDYFNETTILVWVWPFGQTFDLTSCQAMFNIQGCHLTTDRSLYNKSHAVLIHHRDISWDLTNLPQQARPPFQKWIWMNLESPTHTPQKSGIEHLFNLTLTYRRDSDIQVPYGFLTVSTNPFVFEVPSKEKLVCWVVSNWNPEHARVKYYNELSKSIEIHTYGQAFGEYVNDKNLIPTISACKFYLSFENSIHKDYITEKLYNAFLAGSVPVVLGPSRENYENYIPADSFIHVEDYNSPSELAKYLKEVDKNNKLYLSYFNWRKDFTVNLPRFWESHACLACDHVKRHQEYKSVGNLEKWFWN
# modifications: human
# Assays:
# [1] = test system: Namalwa cells; test: Indirect fluorescent antibody staining (FACS) of transformed Namalwa cells; assay type: cell-based, human; settings: FIG. 1
# Description: The plasmids were dissolved in 10 μl of TE buffer. Then each of the plasmids was introduced into Namalwa cells by electroporation method [Cytotechnology, 3, 133 (1990)].
# After introducing […] of the plasmids prepared as described above or 4 μg of pAMo (control plasmid) per 1.0×10^6 to 1.6×10^6 cells (200 μl) by electroporation method, the cells were suspended in 8 ml of RPMI1640 media and then cultured in a CO2 incubator for 24 hours at 37° C.
# After culturing, the medium was supplemented with G418 (manufactured by GIBCO BRL) to 0.5 mg/ml followed by culturing for another 10 to 14 days, thereby obtaining transformed cells.
# Indirect fluorescent antibody staining using the anti-Lewis x sugar chain antibody (PM-81) was performed as follows.
# About 1×10^6 transformed cells were added to a microtube (1.5 ml: manufactured by Eppendolf) and then the cells were collected by centrifugation (550×g, 7 minutes).
# The cells were washed with 0.9 ml of A-PBS, suspended by adding 20 μl of the anti-Lewis x sugar chain antibody (PM-81) that had been diluted with A-PBS to about 10 μg/ml, and then allowed to react for 1 hour at 4° C. […]
# After the reaction, the cells were washed once with 0.9 ml of A-PBS, and then suspended in 0.6 ml of A-PBS, followed by the analysis using a fluorescence activated cell sorter. […]
# [2] = Enzyme activity for monofucosylpoly-N-acetyllactosamine sugar chain P1, Namalwa cell extract, HPLC; assay type: biochemical; settings: relative activity with the activity for P1 assumed to be 1
# Description: (§1) Samples were allowed to react in 20 μl of an assay solution [50 mM cacodylate (pH 6.8), 5 mM ATP, 10 mM L-fucose, 75 μM […] (manufactured by SIGMA), 25 mM MnCl2, 15 μM fluorescently labeled sugar chain substrate, 6 μl of the cell lysate above] at 37° C. for 2 hours, followed by treatment at 100° C. for 3 minutes to stop the reaction. Next 200 μl of water was added to the samples, and the supernatant was obtained by centrifugation at 10,000×g for 5 minutes. Using an aliquot of the supernatant (10 μl), products were analyzed by HPLC under the following conditions.
# (§2) HPLC: • Column—TSK-gel ODS-80TsQA column (4.6×250 mm; TOSOH CORPORATION) • Eluate—0.02 M ammonium acetate (pH 4.0) containing 7% methanol • Elution temperature—50° C. • Flow rate—1.0 ml/min. • Detection—Fluorescence spectrum photometer FB-920 (manufactured by JASCO Corporation) (excitation wavelength: 330 nm, radiation wavelength: 420 nm)
# The enzymatic activities of Fuc-TIV, Fuc-TVI and Fuc-TIX were measured using the product P1 or P2 as a substrate in addition to the above substrate (S).
# [3] = test system: COS-1 cells; test: Indirect fluorescent antibody staining (FACS) of transformed COS-1 cells; assay type: cell-based, African green monkey; settings: antibody 7LE; FIG. 3
# Description: Further, COS-1 cells, into which a control plasmid (pCDM8), a mouse Fuc-TIX expression plasmid (pCDM8-mFT9), or a human Fuc-TIII expression plasmid (pCDM8-Le) had been introduced, were prepared. The cells were subjected to indirect fluorescent antibody staining using the anti-Lewis a sugar chain antibody (7LE, manufactured by […] CORPORATION) (see FIG. 3).
# Each α1,3-fucosyltransferase expression plasmid (15 μg) was introduced into 1×10^7 COS-1 cells.
# This introduction was performed by electroporation method using a gene pulser (manufactured by Bio-Rad) according to the Bio-Rad's instructional manual attached thereto. At this time, 1 μg of a luciferase expression vector, which was constructed by inserting β-actin promoter into a Hind III site of a vector pSVOA/L [Experimental Medicine, 7, 96, (1989)] was co-introduced as an index of gene transfer efficiency.
# [4] = Enzyme activity for a poly-N-acetyllactosamine sugar chain, Namalwa cell extract, HPLC; assay type: biochemical
# From the text: Using a poly-N-acetyllactosamine sugar chain, it was examined that to which GlcNAc in the sugar chains, human Fuc-TIX and 5 types of human α1,3-fucosyltransferase (Fuc-TIII, Fuc-TIV, Fuc-TV, Fuc-TVI, and Fuc-TVII) that had been cloned so far transferred fucose.
# Control plasmid (pAMo) and the human Fuc-TIX expression plasmid pAMo-FT9 were introduced into Namalwa cells according to the method shown in Example 1 (3), thereby obtaining stable transformants.
# Namalwa cells expressing each of the other 5 types of human α1,3-fucosyltransferases (Fuc-TIII, Fuc-TIV, Fuc-TV, Fuc-TVI, and Fuc-TVII) were obtained according to the previous report (Glycoconjugate J., 13, 802-812, Biochem. Biophys. Res. Commun., 237, 131-137, 1997).
# The resultant transformants (about 1×10^7) were collected in microtubes (1.5 ml, manufactured by Eppendolf), followed by centrifugation at 550×g for 7 minutes to collect the cells.
# The collected cells were washed with 0.9 ml of PBS. The washed cells were suspended in 100 μl of a solution which consisted of 20 mM HEPES (pH 7.2) and 1% TrironX-100, then allowed to stand at 4° C. for 10 minutes. Subsequently the cells were disrupted using a ultrasonicator (Bioruptor; manufactured by COSMO BIO CO., LTD.)
# After disruption of the cells, each supernatant was obtained by centrifugation at 550×g for 7 minutes and used as an enzyme sample. A poly-N-acetyllactosamine sugar chain (Galβ1-4GlcNAcβ1-3Galβ1-4GlcNAcβ1-3Galβ1-4GlcNAc) consisting of 6 sugars was fluorescently labeled with 2-aminobenzamide to make a sugar chain (Galβ1-4GlcNAcβ1-3Galβ1-4GlcNAcβ1-3Galβ1-4GlcNAc-2AB: abbreviated as S in FIGS. 13 and 15, and table 3), which was used as a substrate
# Florescent labeling was performed using a Signal™ 2-AB glycan labeling kit (manufactured by Oxford GlycoScience). A poly-N-acetyllactosamine sugar chain (Galβ1-4GlcNAcβ1-3Galβ1-4GlcNAcβ1-3Galβ1-4GlcNAc) was prepared according to WO98/03524.
# as §1, §2
# [5] = relative activity with the activity for P1 assumed to be 1
# [6] = substrate S, relative value, total of products P1, P2 and P3 by each enzyme = 100%
molecule,measurement,setting,value
B1,synthesis of the Lewis x sugar chain in transformed cells,[1],can synthesize
same,synthesis of the Lewis y sugar chain in transformed cells,[1],can synthesize
same,"Enzymatic activity, substrate P1, product P3",[2],1.0
same,synthesis of the Lewis a sugar chain in transformed cells,[3],cannot synthesize
same,"Enzymatic activity, substrate S, product P1",[4]; [5],7.2
same,"Enzymatic activity, substrate S, product P2",[4]; [5],1.6
same,"Enzymatic activity, substrate S, product P3",[4]; [5],0.7
same,Production (%) P1,[4]; [6],82.7%
same,Production (%) P2,[4]; [6],13.4%
same,Production (%) P3,[4]; [6],3.9%
